# Results from US20240239886A1 (YEDA RESEARCH AND DEVELOPMENT, published 2024).
# Where two headings read alike, the source gives them in different places.
# T1: recombinant protein consisting of the extracellular domain of human TREM2 fused to the His tag (human, UniProt Q9NZC2 19-174)
# T1 construct: also called His tagged hTREM2; His-TREM2
# T1 sequence: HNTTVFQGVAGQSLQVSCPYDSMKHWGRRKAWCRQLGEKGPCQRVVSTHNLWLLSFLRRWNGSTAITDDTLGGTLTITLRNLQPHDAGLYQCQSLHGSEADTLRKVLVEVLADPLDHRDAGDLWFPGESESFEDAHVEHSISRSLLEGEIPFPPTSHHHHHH
# T2: human TREM2 (hTREM2) on cells (human, UniProt Q9NZC2 19-230)
# T2 construct: also called hTREM2 expressing HEK293
# T2 sequence: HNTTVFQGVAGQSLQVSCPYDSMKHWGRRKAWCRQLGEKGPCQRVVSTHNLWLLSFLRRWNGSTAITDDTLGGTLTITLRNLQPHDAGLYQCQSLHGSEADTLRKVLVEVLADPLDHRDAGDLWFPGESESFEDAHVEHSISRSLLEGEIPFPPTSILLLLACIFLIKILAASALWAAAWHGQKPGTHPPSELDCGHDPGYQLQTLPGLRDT
# T3: soluble TREM2 protein (human, UniProt Q9NZC2 19-157)
# T3 construct: also called TREM2 in cell culture supernatant (Sup)
# T3 sequence: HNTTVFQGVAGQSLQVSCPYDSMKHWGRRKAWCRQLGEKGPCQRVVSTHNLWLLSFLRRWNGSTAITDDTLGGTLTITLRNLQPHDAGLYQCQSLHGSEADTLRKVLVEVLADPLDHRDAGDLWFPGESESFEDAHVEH
# T4: recombinant protein consisting of the extracellular domain of human TREM2 fused to the His tag (UniProt Q9NZC2 19-174)
# T4 chain: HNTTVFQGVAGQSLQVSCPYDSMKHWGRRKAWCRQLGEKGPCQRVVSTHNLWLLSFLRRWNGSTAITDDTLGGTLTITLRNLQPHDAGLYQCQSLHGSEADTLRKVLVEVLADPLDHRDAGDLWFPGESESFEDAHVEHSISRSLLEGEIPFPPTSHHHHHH
# Columns and labels:
# [1] = target: T1, recombinant protein consisting of the …; assay: direct ELISA
# Protocol: (§1) Ninety six-Well ELISA microplate was coated with 0.5 μg/mL, 100 μl/well His tagged hTREM2 diluted in PBS pH 7.4, and incubated at 4° C. overnight. The plate was rinsed three times with 0.05% tween20 in PBS, blocked with 1% BSA in PBS at room temperature (RT) for 1 hr, and rinsed again. The plates was incubated with the anti hTREM2 antibodies (100 μl/well) for 2 hrs at indicated concentration, at RT. Plate was rinsed and incubated with Peroxidase-AffiniPure Goat anti Mouse IgG, Fcg fragment specific (min X Hu, Bov, Hrs, Sr Prot; Jackson ImmunoResearch) for 20 min at RT. The plate was rinsed and incubated with TMB Reagent (TM4500, Scytek) for 20 min at RT, followed by the addition of Stop Solution 2N Sulfuric Acid (DY994, R&D). OD was measured using an ELISA plate reader at dual wavelengths (450 nm and 570 nm)
# [2] = target: T2, human TREM2 (hTREM2) on cells; assay: flow cytometry on BMDM
# Protocol: TREM2 KO and hTREM2 BMDM were washed with MACS buffer (PBS pH 7.2, 0.5% BSA and 2 mM EDTA) and stained with biotin conjugated anti hTREM2 antibodies (10 μg/mL) followed by Washing with MACS buffer and APC-streptavidin (Biolegend, 405207) incubation, then analyzed by flow cytometer (LSRII, BD).
# soluble TREM2 protein = target: T3, soluble TREM2 protein; assay: sup ELISA, hTREM2 vs WT 293HEK supernatant
# Protocol: Supernatant was collected, centrifuged for 5 min at 900 g and filtered (0.45 μm). Ninety six-well ELISA microplate was coated with 0.2 μg/well of anti human TREM2 Antibody (AF1828, R&D) diluted in PBS, and incubated at 4° C. overnight. The plate was rinsed three times with 0.05% tween20 in PBS, blocked with 1% BSA in PBS at room temperature (RT) for 1 hr, and rinsed again. The plates was incubated with the cell culture supernatant (100 μl/well) for 2 hrs at RT for and rinsed again. The plate was incubated with 0.1 μg biotinylayed anti hTREM2 antibodies for 2 hrs at RT. After incubation, the plate was rinsed and incubated with streptavidin-HRP (DY998, R&D) for 20 min at RT. The plate was rinsed and incubated with TMB Reagent (TM4500, Scytek) for 20 min at RT, followed by the addition of Stop Solution 2N Sulfuric Acid (DY994, R&D). OD was measured using an ELISA plate reader at dual wavelengths (450 nm and 570 nm)
# (§2) A. Cells culture supernatant (Sup) was used for soluble TREM2 protein binding capability test of 18 hybridoma derived monoclonal antibodies by direct ELISA. B. Cells were captured in 96 wells plate and were used for cell based ELISA of 18 hybridoma derived monoclonal antibodies. OD values positive cells (hTREM2 expressing HEK293) and negative cells (WT HEK293) are showing in the table.
# [3] = target: T2, human TREM2 (hTREM2) on cells; assay: cell-based ELISA, hTREM2 vs WT 293HEK cells
# Protocol: Cells were washed three times with PBS and blocked (5% FBS, 1% BSA in PBS) for 2 hrs at RT. Cells were washed with 1% BSA in PBS and were incubated with 0.1 ug (or indicated amount) obiotinylayed anti hTREM2 antibodies for 4 hrs at RT. After incubation, cells were incubated with streptavidin-HRP (DY998, R&D) for 20 min at RT. The cells were washed and incubated with TMB Reagent (TM4500, Scytek) for 30 min at RT, followed by the addition of Stop Solution 2N Sulfuric Acid (DY994, R&D). OD was measured using an ELISA plate reader at dual wavelengths (450 nm and 570 nm). Biotinylation of Antibodies was done using EZ-Link™ Sulfo-NHS-LC-Biotinylation kit (Thermo Fisher Scientific) according to manufacturer's instructions.
# as §2
# [4] = target: T1, recombinant protein consisting of the …; assay: direct ELISA; highest dilution with S/B >= 2.1
# Protocol: as §1
# (§3) Purity is measured by SDS-PAGE. Quantity of endotoxin (EU/mg) is measured by LAL assay. Titer measured by direct ELISA, while the title value is the highest dilution with S/B (Signal/Blank) >= 2.1
# [5] = target: T1, recombinant protein consisting of the …; assay: direct ELISA; highest dilution with S/B >= 2.1; remark: listed apart in the source
# Protocol: as §1, §3
# [6] = target: T1, recombinant protein consisting of the …; assay: direct ELISA, coated His-TREM2 0.5 ug/mL, Ab stock 1 mg/mL
# Protocol: as §1
# [7] = target: T4, recombinant protein consisting of the …; assay: SPR
Binder,direct ELISA positive/negative [1] [ratio],FACS positive/negative BMDM [2] [ratio],sup ELISA positive/negative (293HEK) (soluble TREM2 protein) [ratio],Cell based ELISA positive/negative [3] [ratio],Titer [4] [dilution],Titer [5] [dilution],OD at dilution 1000 [6] [OD],OD at dilution 3000 [6] [OD],OD at dilution 9000 [6] [OD],OD at dilution 27000 [6] [OD],OD at dilution 81000 [6] [OD],OD at dilution 243000 [6] [OD],OD at dilution 729000 [6] [OD],OD at dilution 2187000 [6] [OD],OD at dilution 6561000 [6] [OD],OD at dilution 19683000 [6] [OD],Kd [7] [pM]
"61B11C9 (antibody, V domains shown, Biotin conjugated in sup ELISA, cell-based ELISA and flow cytometry) VH: QLQESGPEQVKPGASVKMSCRTSGYTFTAYNMHWVKQRLGKSLEWIGYIRPTNGDTRYNRRFRDKATLTVDKSSSTTYMELRSLTSEDSAVYYCTRSTTVASFDYWGQGTTLTVSS VL: DIVMTQTTSSLTVSVGQKITLNCKSSQSLLYTNNQKNFLAWYQQKPGQSPKLLIYWASTRDSGVPDRFTGSGSGTDFTLTITSVMAEDLAVYFCQQYYDFPPTFGGGTKLEIK",35.1,1.47,3.05,2.46,2.19e+06,2.19e+06,2.75,2.76,2.88,2.58,1.92,0.985,0.405,0.169,0.099,0.066,
"83E10B12 (antibody, V domains shown, Biotin conjugated in sup ELISA, cell-based ELISA and flow cytometry) VH: QVQLQESGPELVKPGASVKISCKASGYIFSYSWMNWVKQRPGKGLEWIGRIYPGDGDADYNGKFKGKATLTADKSSNTAYMQLTSLTSEDSAVYFCARLHIYDGYYVSVYWGQGTLVTVSA VL: DIQMTQTTSCLSASLGDRVTISCRASQDINNYLSWYQQKPDGTVKLLIYYTSKLHSGVPSRFSGSGSGTDYSLTIGNLEQEDVATYFCQQGDTLPWTFGGGTRLEIK",34.8,2.58,27.9,1.91,243000,243000,2.59,2.49,1.98,0.843,0.375,0.179,0.099,0.068,0.07,0.053,32.1
"80E3C7 (antibody, V domains shown, Biotin conjugated in sup ELISA, cell-based ELISA and flow cytometry; also called anti-TREM2 antibody (E3C7); TREM2 Ab E3C7) VH: QVQLQQPGAEPLKPGASVKMSCEASGYTFTNFWITWMKLRPGQGLEWIGDIYPGTGNTNYNEKFKSRATLTVDTSSTTAYMQLSSLTSEDSAVYYCAREAYYTNPGFAYWGHGTLVTVSA VL: DVLMTQSPLSLPVNLGDQASISCKSSQNIVHSNGNTYLEWYLQRPGQSPKLLIYKVSNRFSGVPDRFSGSGSGTDFTLKISRVEAEDLGVYYCFQGSHVPYTFGGGTKLEIK",33.4,1.87,24.9,2.8,2.19e+06,2.19e+06,2.02,2.12,2.16,1.76,1.2,0.608,0.281,0.145,0.092,0.085,0.0275
"54H2C1 (antibody, V domains shown, Biotin conjugated in sup ELISA, cell-based ELISA and flow cytometry) VH: QVQLQQPGAEPLTPGASVKMSCEASGYTFTNFWITWVKLRPGQGLEWIGDIYPGSGNTNYNEKFKSRATLTVDTSSTTAYMQLSSLTSEDSAVYYCAREAYYTNPGFAYWGHGTLVTVSA VL: DVLMTQSPLSLPVNLGDQASISCKSSQNIVHSNGNTYLEWYLQRPGQSPKLLIYKVSNRFSGVPDRFSGSGSGTDFTLKISRVEAEDLGLYYCFQGSHVPYTFGGGTKLEIK",33.9,2.72,25.1,2.69,729000,729000,1.4,1.35,1.18,0.967,0.586,0.276,0.147,0.106,0.087,0.069,399
"60H4A3 (antibody, V domains shown, Biotin conjugated in sup ELISA, cell-based ELISA and flow cytometry) VH: EVQLQESGPELVKPGASVKMSCKASGYTFTDYNMHWVKQSHGKSLEWIGYIYPNNGGTGYNQKFKGKATLTVNKSSSTAYMELRSLTSEDSAVYYCARSGRGFAYWGQGTLVTVSA VL: DIVMTQSPASLSVTPGDRVSLSCRASQSISDYLHWYQQKSHESPRLLIKYASQSISGIPSRFSGSGSGSDFTLSINSVEPEDVGVYYCQNGHSFPYTFGGGTKLEIK",31.5,1.78,11,1.89,2.19e+06,2.19e+06,1.84,1.8,1.9,1.63,1.16,0.763,0.322,0.17,0.113,0.063,
"60H4G2 (antibody, V domains shown, Biotin conjugated in sup ELISA, cell-based ELISA and flow cytometry) VH: EVQLQESGPELVKPGASVKMSCKASGYTFTDYNMHWVKQSHGKSLEWIGYIYPNNGGTGYNQKFKGKATLTVNKSSSTAYMELRSLTSEDSAVYYCARSGRGFAYWGQGTLVTVSA VL: DIVMTQSTSSLTVTAGEKVTMSCKSSQSLLNSGNQKNYLTWYQQKPGQPPKLLIYWASSRESGVPDRFTGRGSGTDFTLTISSVQAEDLAVYYCQNDYSYPFTFGSGTKLEIK",27.4,1.16,10,1.38,729000,729000,1.83,1.89,1.69,1.31,0.849,0.432,0.222,0.133,0.102,0.067,
